In article PMC5630700 (Frontiers in Immunology, 2017):

B1: sdAb B–Gaussia luciferase fusion (glucibody, pecan35) (VHH)
VHH: KVQLQESGGGLVQAGGSLRLSCAASGGTFSINTLGWYRRAPGKEREFVARISSGGITRYADSVKGRFTISRDNGKNTVYLDMNSLKPEDTAVYYCMYRNWGGGLDVYWGQGTQVTVSS
notes: also called sdAb B glucibody; sdAb B–gluc; source: E. coli Tuner + pRARE, periplasmic (pecan35), purified
B2: sdAb B as a BAP fusion (from pecan126) (VHH)
VHH: B1 VHH
notes: also called wild-type sdAb B; source: E. coli HBV88 (pecan126), purified
B3: sdAb A–Gaussia luciferase fusion (glucibody, pecan35) (VHH)
VHH: EVKLQESGGGLVQAGESLRLSCAVPPEVFDIRTVAWYRQVPLGKGRELLSSITPWNKTTYEDSVKDRFTISRDNAKYTVYLQMNDLKPEDTAVYYCAQGWGIASMRYWGQGTQVTVSS
notes: also called sdAb A glucibody; sdAb A–gluc; source: E. coli Tuner + pRARE, periplasmic (pecan35), purified
B4: sdAb A as a BAP fusion (from pecan126) (VHH)
VHH: B3 VHH
notes: also called wild-type sdAb A; source: E. coli HBV88 (pecan126), purified
B5: sdAb C–Gaussia luciferase fusion (glucibody, pecan35) (VHH)
VHH: KVQLQESGGGLVQVGGSLRLSCKASGFTFRSSAMGWYRRAPGKQRELVASLTTTGTADYGDFVKGRFTISRDNAENTVDLHMNSLKPEDTAVYYCHEDPYGMESLRYWGQGTQVTVSS
notes: also called sdAb C glucibody; sdAb C–gluc; source: E. coli Tuner + pRARE, periplasmic (pecan35), purified
B6: sdAb C as a BAP fusion (from pecan126) (VHH)
VHH: B5 VHH
notes: also called wild-type sdAb C; source: E. coli HBV88 (pecan126), purified

How the values were obtained:
[1] = molecular target: T1, mbp-NP632 fusion protein (Marburg virus Musoke-80, UniProt P27588); test: ELISA; settings: both partners purified
T1 construct: source: E. coli (pE), purified

[2] = molecular target: T2, nluc-NP632 fusion protein (Marburg virus Musoke-80, UniProt P27588); test: ELISA; settings: both partners purified
T2 construct: source: E. coli, cytosolic (pENCO derivative), purified

T1 sequence (P27588 632-695): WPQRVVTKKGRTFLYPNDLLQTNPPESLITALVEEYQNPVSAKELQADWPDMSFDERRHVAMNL

| Binder | EC50 [1] | EC50 [2] |
| --- | --- | --- |
| B1 | 189 nM |  |
| B2 |  | 28.5 nM |
| B3 | 15.4 nM |  |
| B4 |  | 12.8 nM |
| B5 | 22.3 nM |  |
| B6 |  | 26.6 nM |
